# Measured values reported in IntAct's records for PubMed 31515488.
# B1: Protein BTG1 (Homo sapiens), P62324 (parent)
# chain: MHPFYTRAATMIGEIAAAVSFISKFLRTKGLTSERQLQTFSQSLQELLAEHYKHHWFPEKPCKGSGYRCIRINHKMDPLIGQAAQRIGLSSQELFRLLPSELTLWVDPYEVSYRIGEDGSICVLYEASPAGGSTQNSTNVQMVDSRISCKEELLLGRTSPSKNYNMMTVSG
# B2: Cyclin-H (Homo sapiens), P51946 (parent)
# chain: MYHNSSQKRHWTFSSEEQLARLRADANRKFRCKAVANGKVLPNDPVFLEPHEEMTLCKYYEKRLLEFCSVFKPAMPRSVVGTACMYFKRFYLNNSVMEYHPRIIMLTCAFLACKVDEFNVSSPQFVGNLRESPLGQEKALEQILEYELLLIQQLNFHLIVHNPYRPFEGFLIDLKTRYPILENPEILRKTADDFLNRIALTDAYLLYTPSQIALTAILSSASRAGITMESYLSESLMLKENRTCLSQLLDIMKSMRNLVKKYEPPRSEEVAVLKQKLERCHSAELALNVITKKRKGYEDDDYVSKKSKHEEEEWTDDDLVESL
# partner: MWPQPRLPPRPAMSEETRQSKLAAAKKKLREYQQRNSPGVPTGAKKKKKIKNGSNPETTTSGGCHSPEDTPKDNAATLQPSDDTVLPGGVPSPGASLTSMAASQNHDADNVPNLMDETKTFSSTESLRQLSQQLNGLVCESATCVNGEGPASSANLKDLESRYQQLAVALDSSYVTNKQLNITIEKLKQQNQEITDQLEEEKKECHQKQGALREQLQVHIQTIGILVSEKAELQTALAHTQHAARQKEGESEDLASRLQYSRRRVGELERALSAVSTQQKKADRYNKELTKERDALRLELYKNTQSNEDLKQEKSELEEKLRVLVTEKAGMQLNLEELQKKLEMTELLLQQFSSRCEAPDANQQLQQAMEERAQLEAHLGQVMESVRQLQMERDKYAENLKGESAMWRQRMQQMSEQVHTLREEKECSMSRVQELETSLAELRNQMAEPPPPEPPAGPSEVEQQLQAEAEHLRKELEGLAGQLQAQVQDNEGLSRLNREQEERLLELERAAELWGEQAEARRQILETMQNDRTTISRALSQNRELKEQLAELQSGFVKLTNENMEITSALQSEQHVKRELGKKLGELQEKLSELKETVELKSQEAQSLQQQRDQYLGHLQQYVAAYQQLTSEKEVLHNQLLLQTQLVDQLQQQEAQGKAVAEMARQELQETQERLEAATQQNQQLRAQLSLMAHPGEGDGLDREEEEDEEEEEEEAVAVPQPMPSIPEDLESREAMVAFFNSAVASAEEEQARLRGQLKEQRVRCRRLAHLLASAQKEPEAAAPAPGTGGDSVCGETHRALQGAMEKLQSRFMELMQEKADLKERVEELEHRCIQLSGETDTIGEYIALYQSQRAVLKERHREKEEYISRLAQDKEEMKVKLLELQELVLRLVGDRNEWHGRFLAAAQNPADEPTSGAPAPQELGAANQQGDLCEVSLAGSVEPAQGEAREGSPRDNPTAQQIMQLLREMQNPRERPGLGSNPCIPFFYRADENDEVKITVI
# B3: Protein LDOC1 (Homo sapiens), O95751 (parent)
# chain: MVDELVLLLHALLMRHRALSIENSQLMEQLRLLVCERASLLRQVRPPSCPVPFPETFNGESSRLPEFIVQTASYMLVNENRFCNDAMKVAFLISLLTGEAEEWVVPYIEMDSPILGDYRAFLDEMKQCFGWDDDEDDDDEEEEDDY
# partner: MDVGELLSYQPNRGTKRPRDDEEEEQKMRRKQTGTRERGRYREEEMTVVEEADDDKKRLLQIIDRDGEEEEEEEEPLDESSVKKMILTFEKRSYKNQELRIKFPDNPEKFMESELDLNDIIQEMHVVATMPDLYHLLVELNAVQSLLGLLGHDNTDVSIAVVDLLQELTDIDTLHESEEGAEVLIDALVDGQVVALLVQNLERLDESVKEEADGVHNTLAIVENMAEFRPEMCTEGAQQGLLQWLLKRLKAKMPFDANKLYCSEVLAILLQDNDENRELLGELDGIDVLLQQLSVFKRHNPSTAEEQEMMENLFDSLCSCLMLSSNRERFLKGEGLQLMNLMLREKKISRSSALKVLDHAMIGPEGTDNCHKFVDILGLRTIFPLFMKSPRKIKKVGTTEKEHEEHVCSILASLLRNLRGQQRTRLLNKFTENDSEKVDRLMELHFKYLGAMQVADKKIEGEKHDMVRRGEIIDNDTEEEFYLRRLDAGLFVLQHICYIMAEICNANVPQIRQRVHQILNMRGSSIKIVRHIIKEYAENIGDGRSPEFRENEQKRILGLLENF
# B4: Transmembrane protein 140 (Homo sapiens), Q9NV12 (parent)
# chain: MAGPRPRWRDQLLFMSIIVLVIVVICLMFYALLWEAGNLTDLPNLRIGFYNFCLWNEDTSTLQCHQFPELEALGVPRVGLGLARLGVYGSLVLTLFAPQPLLLAQCNSDERAWRLAVGFLAVSSVLLAGGLGLFLSYVWKWVRLSLPGPGFLALGSAQALLILLLIAMAVFPLRAERAESKLESC
# partner: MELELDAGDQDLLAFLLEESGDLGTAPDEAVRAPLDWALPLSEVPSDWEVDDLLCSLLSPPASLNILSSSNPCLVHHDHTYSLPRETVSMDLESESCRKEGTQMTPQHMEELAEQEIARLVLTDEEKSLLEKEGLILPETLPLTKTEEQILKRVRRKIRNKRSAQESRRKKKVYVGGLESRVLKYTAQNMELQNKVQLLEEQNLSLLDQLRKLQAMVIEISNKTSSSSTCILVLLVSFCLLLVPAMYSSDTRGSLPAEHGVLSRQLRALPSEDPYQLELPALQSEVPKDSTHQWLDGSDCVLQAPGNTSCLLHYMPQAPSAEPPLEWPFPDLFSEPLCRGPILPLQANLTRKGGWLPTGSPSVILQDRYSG
# B5: Ligand-dependent corepressor (Homo sapiens), Q96JN0 (parent)
# chain: MQRMIQQFAAEYTSKNSSTQDPSQPNSTKNQSLPKASPVTTSPTAATTQNPVLSKLLMADQDSPLDLTVRKSQSEPSEQDGVLDLSTKKSPCAGSTSLSHSPGCSSTQGNGRPGRPSQYRPDGLRSGDGVPPRSLQDGTREGFGHSTSLKVPLARSLQISEELLSRNQLSTAASLGPSGLQNHGQHLILSREASWAKPHYEFNLSRMKFRGNGALSNISDLPFLAENSAFPKMALQAKQDGKKDVSHSSPVDLKIPQVRGMDLSWESRTGDQYSYSSLVMGSQTESALSKKLRAILPKQSRKSMLDAGPDSWGSDAEQSTSGQPYPTSDQEGDPGSKQPRKKRGRYRQYNSEILEEAISVVMSGKMSVSKAQSIYGIPHSTLEYKVKERLGTLKNPPKKKMKLMRSEGPDVSVKIELDPQGEAAQSANESKNE
# B6: E3 ubiquitin-protein ligase MARCHF5 (Homo sapiens), Q9NX47 (parent)
# chain: MPDQALQQMLDRSCWVCFATDEDDRTAEWVRPCRCRGSTKWVHQACLQRWVDEKQRGNSTARVACPQCNAEYLIVFPKLGPVVYVLDLADRLISKACPFAAAGIMVGSIYWTAVTYGAVTVMQVVGHKEGLDVMERADPLFLLIGLPTIPVMLILGKMIRWEDYVLRLWRKYSNKLQILNSIFPGIGCPVPRIPAEANPLADHVSATRILCGALVFPTIATIVGKLMFSSVNSNLQRTILGGIAFVAIKGAFKVYFKQQQYLRQAHRKILNYPEQEEA
# partner: B4 partner
# B7: Medium-chain acyl-CoA ligase ACSF2, mitochondrial (Homo sapiens), Q96CM8 (parent)
# chain: MAVYVGMLRLGRLCAGSSGVLGARAALSRSWQEARLQGVRFLSSREVDRMVSTPIGGLSYVQGCTKKHLNSKTVGQCLETTAQRVPEREALVVLHEDVRLTFAQLKEEVDKAASGLLSIGLCKGDRLGMWGPNSYAWVLMQLATAQAGIILVSVNPAYQAMELEYVLKKVGCKALVFPKQFKTQQYYNVLKQICPEVENAQPGALKSQRLPDLTTVISVDAPLPGTLLLDEVVAAGSTRQHLDQLQYNQQFLSCHDPINIQFTSGTTGSPKGATLSHYNIVNNSNILGERLKLHEKTPEQLRMILPNPLYHCLGSVAGTMMCLMYGATLILASPIFNGKKALEAISRERGTFLYGTPTMFVDILNQPDFSSYDISTMCGGVIAGSPAPPELIRAIINKINMKDLVVAYGTTENSPVTFAHFPEDTVEQKAESVGRIMPHTEARIMNMEAGTLAKLNTPGELCIRGYCVMLGYWGEPQKTEEAVDQDKWYWTGDVATMNEQGFCKIVGRSKDMIIRGGENIYPAELEDFFHTHPKVQEVQVVGVKDDRMGEEICACIRLKDGEETTVEEIKAFCKGKISHFKIPKYIVFVTNYPLTISGKIQKFKLREQMERHLNL
# partner: B4 partner
# B8: DnaJ homolog subfamily C member 30, mitochondrial (Homo sapiens), Q96LL9 (parent)
# chain: MAAMRWRWWQRLLPWRLLQARGFPQNSAPSLGLGARTYSQGDCSYSRTALYDLLGVPSTATQAQIKAAYYRQCFLYHPDRNSGSAEAAERFTRISQAYVVLGSATLRRKYDRGLLSDEDLRGPGVRPSRTPAPDPGSPRTPPPTSRTHDGSRASPGANRTMFNFDAFYQAHYGEQLERERRLRARREALRKRQEYRSMKGLRWEDTRDTAAIFLIFSIFIIIGFYI
# partner: B4 partner
# B9: Homeobox protein PKNOX1 (Homo sapiens), P55347 (parent)
# chain: MMATQTLSIDSYQDGQQMQVVTELKTEQDPNCSEPDAEGVSPPPVESQTPMDVDKQAIYRHPLFPLLALLFEKCEQSTQGSEGTTSASFDVDIENFVRKQEKEGKPFFCEDPETDNLMVKAIQVLRIHLLELEKVNELCKDFCSRYIACLKTKMNSETLLSGEPGSPYSPVQSQQIQSAITGTISPQGIVVPASALQQGNVAMATVAGGTVYQPVTVVTPQGQVVTQTLSPGTIRIQNSQLQLQLNQDLSILHQDDGSSKNKRGVLPKHATNVMRSWLFQHIGHPYPTEDEKKQIAAQTNLTLLQVNNWFINARRRILQPMLDSSCSETPKTKKKTAQNRPVQRFWPDSIASGVAQPPPSELTMSEGAVVTITTPVNMNVDSLQSLSSDGATLAVQQVMMAGQSEDESVDSTEEDAGALAPAHISGLVLENSDSLQ
# partner: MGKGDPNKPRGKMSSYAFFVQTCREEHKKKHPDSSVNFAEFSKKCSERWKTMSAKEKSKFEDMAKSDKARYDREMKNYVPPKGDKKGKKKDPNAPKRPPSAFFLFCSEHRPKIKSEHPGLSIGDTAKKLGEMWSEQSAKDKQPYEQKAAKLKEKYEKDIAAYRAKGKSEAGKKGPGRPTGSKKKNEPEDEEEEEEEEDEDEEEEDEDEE
# Variants of: B1
# Details: with cnot8_human CNOT8, Q9UFF9
# cnot8_human CNOT8, Q9UFF9, sequence (Q9UFF9 whole entry): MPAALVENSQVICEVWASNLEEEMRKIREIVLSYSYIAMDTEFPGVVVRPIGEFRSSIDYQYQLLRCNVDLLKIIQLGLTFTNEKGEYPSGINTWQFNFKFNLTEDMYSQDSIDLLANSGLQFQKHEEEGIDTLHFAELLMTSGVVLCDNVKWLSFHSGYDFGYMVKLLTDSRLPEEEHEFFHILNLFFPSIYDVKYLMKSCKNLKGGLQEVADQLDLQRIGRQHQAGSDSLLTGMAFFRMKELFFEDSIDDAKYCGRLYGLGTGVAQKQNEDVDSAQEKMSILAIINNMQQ
row,effect of a mutation on the interaction,Variant
1,with no effect,N139S

# Variants of: B2
# Details: with goga2_human GOLGA2, Q08379
row,effect of a mutation on the interaction,Variant
1,disrupting interaction strength,N155T

# Variants of: B3
# Details: with ctbl1_human CTNNBL1, Q8WYA6
row,effect of a mutation on the interaction,Variant
1,disrupting interaction strength,L12H

# Variants of: B4
# Details: with creb3_human CREB3, O43889
row,effect of a mutation on the interaction,Variant
1,with no effect,A112E

# Variants of: B5
# Details: with ctbp2_human CTBP2, P56545
row,effect of a mutation on the interaction,Variant
1,with no effect,T44M

# Variants of: B6
# Details: with creb3_human CREB3, O43889
row,effect of a mutation on the interaction,Variant
1,with no effect,T20A
2,with no effect,D202N

# Variants of: B7
# Details: with creb3_human CREB3, O43889
row,effect of a mutation on the interaction,Variant
1,disrupting interaction strength,A34V
2,disrupting interaction strength,G19W

# Variants of: B8
# Details: with creb3_human CREB3, O43889
row,effect of a mutation on the interaction,Variant
1,with no effect,T48K

# Variants of: B9
# Details: with hmgb2_human HMGB2, P26583
row,effect of a mutation on the interaction,Variant
1,with no effect,E103D
2,with no effect,V265I

# Variants of: B9
# Details: with hmgb2_human HMGB2, P26583
# Remark: another data set of the same source
row,effect of a mutation on the interaction,Variant
1,with no effect,V265I
